Reference: the supplement of paper PMC10126150
± gives the standard deviation of the averaged measurements.

Tested on: ATP
Assay: switch fluorescence ratio, 500 uM ATP over buffer (Cy3 cluster intensity, sum of 5 cycles each) (fold (ratio)); higher = stronger signal-on switching upon ATP binding; sequences stand for … in TCGTCGGCAGCGTCAGATGTGTATAAGAGACAGTTTTTTTTTTTTTTTTTTTTTTTTT…TC
Settings: aptamer strand: ATP DNA aptamer (quencher-CACCTGGGGGAGTATTGCGGAGGAAGG + anchor), 100 nM annealed; ATP concentration: 500 uM
How it was run: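 For every switch-domain sequence, the fluorescence ratio is the mean of per-cluster values, each being summed target-cycle Cy3 intensity over summed buffer-cycle Cy3 intensity. Clusters outside 100-1000 RFU were excluded. On a modified Illumina MiSeq flow-cell, the Cy3-labelled switching-strand clusters were annealed to 100 nM quencher-labelled ATP aptamer, imaged in selection buffer and then after 15 min with 500 uM ATP at 22 °C. Five such cycles were run, with NaOH stripping and re-annealing between them.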
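Further: ATP exposure 15 min at 22 °C before imaging.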

| Sequence | switch fluorescence ratio |
| --- | --- |
| GAGAGCGAGT | 1.03 ± 0.036 |
| CTTCAATTAT | 1.01 ± 0.029 |
| CGATATAGTC | 0.993 ± 0.049 |
| CCCGCATGAT | 5.66 ± 0.2 |
| CAACATGATG | 0.995 ± 0.013 |
| TGGAGTAGAT | 0.986 ± 0.038 |
| GTCTATACAT | 0.973 ± 0.028 |
| GTTGAAAATT | 0.99 ± 0.021 |
| GCTCGGTTG | 1.01 ± 0.022 |
| CAATTGCCCA | 1.014 ± 0.0079 |
| TTCTAAAATT | 0.992 ± 0.032 |
| ATTTTGTCTC | 1.01 ± 0.013 |
| ATATCGGGGG | 1.01 ± 0.081 |
| TTGTGGTCGC | 0.97 ± 0.024 |
| GCGTTTGGGG | 1.01 ± 0.043 |
| TGCCGGTGGT | 1.01 ± 0.035 |
| TGAAGACAAC | 1.04 ± 0.025 |
| GGCCTGGGAG | 0.992 ± 0.011 |
| TGAATGTTGG | 0.988 ± 0.025 |
| TGACCATTGC | 1.093 ± 0.0059 |
| GACACACAAA | 1.18 ± 0.11 |
| TAGTAGGTAG | 0.985 ± 0.025 |
| GTGTAAAGAC | 1.03 ± 0.053 |
| TATCTATCAT | 0.969 ± 0.024 |
| GCGGTACGGT | 1.03 ± 0.039 |

| Sequence | switch fluorescence ratio |
| --- | --- |
| TATATCTATA | 1.02 ± 0.015 |
| AATTGCTTGT | 0.978 ± 0.02 |
| AACAGTGAAA | 1.02 ± 0.02 |
| ATCCGTAGGT | 0.995 ± 0.029 |
| TCTCTGTTGA | 1.01 ± 0.057 |
| GGGAGTAGTT | 1.01 ± 0.025 |
| AGTGGCCGCG | 1.02 ± 0.016 |
| TAATTCAGGG | 1.03 ± 0.032 |
| ACGGTAACGT | 1.02 ± 0.0058 |
| TTATAAAGGT | 1.03 ± 0.079 |
| AGAGGGTCTC | 0.973 ± 0.058 |
| AATAATAAGA | 1 ± 0.017 |
| AGGCGCAGTG | 1.04 ± 0.054 |
| CCTGGGTTAG | 0.998 ± 0.017 |
| TTTGAATTAG | 1 ± 0.039 |
| AAAGCCACGC | 1.11 ± 0.032 |
| TTTAGGTTGT | 0.9984 ± 0.0073 |
| GCTCGGGTGT | 1.15 ± 0.33 |
| TTGTTTTTGG | 0.987 ± 0.032 |
| GGGTGTGCGC | 1.0134 ± 5.8e-05 |
| GCCTGGTGTC | 1.27 ± 0.055 |
| CAGTCTAAGA | 1.03 ± 0.056 |
| CGGGTCCGTA | 0.9751 ± 0.004 |
| TTACATTTTA | 1.02 ± 0.015 |
| AAATCGGGAA | 1.34 ± 0.44 |

| Sequence | switch fluorescence ratio |
| --- | --- |
| GACGGGATGG | 0.993 ± 0.056 |
| GAGTTTCGTG | 0.965 ± 0.01 |
| CGCCAGATTT | 0.9963 ± 0.0072 |
| AGAAGAGCTT | 1.011 ± 0.0024 |
| TATCAGTGAT | 1.02 ± 0.071 |
| TTGGGCGATT | 1.06 ± 0.045 |
| CGGGGCGTGT | 0.988 ± 0.046 |
| AAACGGTATT | 1.09 ± 0.083 |
| AATAGTGGGT | 1 ± 0.013 |
| CAGGTAAGGT | 1.014 ± 0.0035 |
| GGGGAGTAGC | 0.999 ± 0.03 |
| ATCAAAAGCG | 0.96765 ± 0.00089 |
| GAAGGTTTGT | 1.002 ± 0.01 |
| ATAGGGGTTC | 0.994 ± 0.035 |
| CCGGGGGCTT | 1.22 ± 0.019 |
| GCATCATATG | 0.998 ± 0.028 |
| GTTACTGGTG | 1.05 ± 0.027 |
| AGTGTTTCTG | 0.973 ± 0.049 |
| ACTGAGCCTG | 1.056 ± 0.0083 |
| GAAGTGCGAG | 1.004 ± 0.008 |
| AGAAGTTGAG | 0.984 ± 0.01 |
| TTAGGAGGGA | 0.9949 ± 0.0064 |
| TAAGTAAGGG | 1 ± 0.025 |
| CAGGGCTTAG | 1.01 ± 0.035 |
| TCGGAGGGGA | 1 ± 0.02 |

| Sequence | switch fluorescence ratio |
| --- | --- |
| CGCGAGAGGA | 1.01 ± 0.016 |
| TTATGGCTTT | 0.985 ± 0.018 |
| CGGTGGGGAC | 1.04 ± 0.13 |
| GGGGGTAGTT | 1 ± 0.032 |
| GAGCTTGTGG | 1.03 ± 0.015 |
| TTTTTGGTGG | 1 ± 0.032 |
| CAAGACAACT | 1.03 ± 0.033 |
| AAGGGTGGTA | 0.981 ± 0.016 |
| AAGTTGTCTG | 0.978 ± 0.056 |
| GCGAGCGTCC | 1.025 ± 0.0023 |
| GATAGTGGCA | 1.03 ± 0.023 |
| TTAGTAAACA | 1.01 ± 0.049 |
| GGTCGCTTTT | 0.9949 ± 0.0043 |
| ATAGACTAGA | 0.9856 ± 0.003 |
| GGGGCTGGTA | 1.003 ± 0.0043 |
| AAACGTTAGC | 1.03 ± 0.052 |
| CGTTGTAGGG | 0.989 ± 0.01 |
| GCTTTTAGGA | 1 ± 0.038 |
| ATAGCCGGAC | 1.081 ± 0.008 |
| TTTGTCAAAA | 1 ± 0.025 |
| TGTAGTATCG | 1.016 ± 0.0045 |
| TATAGGGTTT | 1.07 ± 0.12 |
| AGATGATCAG | 0.982 ± 0.02 |
| TTCTGGCGCG | 0.984 ± 0.015 |
| ATTATGCTGC | 0.977 ± 0.033 |

| Sequence | switch fluorescence ratio |
| --- | --- |
| TAAGGTACGA | 1.052 ± 0.0032 |
| TTGAAGGGGA | 0.9736 ± 0.0039 |
| TACGATGACT | 1.19 ± 0.11 |
| AGCCCTAAGG | 0.979 ± 0.045 |
| TGCGGGGGAG | 0.996 ± 0.02 |
| AAGGGGGCCA | 0.982 ± 0.074 |
| TGGCATCGGG | 1.01 ± 0.042 |
| GTAGCGATAG | 4.13 ± 2.2 |
| ATTTAACCCG | 1.02 ± 0.044 |
| ATAGGGCCAG | 1.06 ± 0.067 |
| GGCAGCGGGG | 0.991 ± 0.019 |
| GCGGCACATA | 1.09 ± 0.042 |
| AAAGTGGGAG | 0.971 ± 0.012 |
| CTGGGGAAAA | 1.57 ± 0.94 |
| TTTATATGTT | 1.03 ± 0.04 |
| TTTGAGTATT | 0.992 ± 0.047 |
| TAATAGTGTT | 1.024 ± 0.0092 |
| GTAGTATTAT | 0.991 ± 0.035 |
| TGAAAATTGA | 0.999 ± 0.017 |
| CGATATTTGG | 1 ± 0.02 |
| TAGGAGGGAG | 1.02 ± 0.031 |
| GCTTGGAGGG | 0.983 ± 0.027 |
| GGGGTCTACC | 0.974 ± 0.014 |
| TCATTTAAGG | 0.987 ± 0.02 |
| GGGTATGGCC | 1.01 ± 0.025 |

| Sequence | switch fluorescence ratio |
| --- | --- |
| TAGGTGCAGG | 1.08 ± 0.068 |
| GCCCGCCACA | 1.06 ± 0.041 |
| ATAGGTCTGC | 0.975 ± 0.038 |
| AGCCCTGGGG | 1.02 ± 0.011 |
| TGGATTTTTG | 0.9666 ± 0.0042 |
| AGTACGTTGG | 0.966 ± 0.034 |
| AGCTCGGTCG | 0.963 ± 0.017 |
| TTAAAAAAGG | 1.01 ± 0.087 |
| GCATAACAGG | 1.04 ± 0.045 |
| AAATTACGGG | 1.045 ± 0.0046 |
| TTTTACGCTT | 1.04 ± 0.017 |
| TTTGTGGAGG | 0.999 ± 0.023 |
| TTTGAAAGTG | 0.999 ± 0.015 |
| GCTTTTAGAT | 0.9794 ± 0.0028 |
| GATGTTGATT | 0.997 ± 0.014 |
| TTGCTGCAAA | 1.1 ± 0.12 |
| TTTGTCCGGT | 0.971 ± 0.018 |
| TTCGTGGGGT | 1.03 ± 0.061 |
| CCGCTATTGT | 2.77 ± 0.4 |
| TAAAATAGAG | 1 ± 0.035 |
| AGGGGTGGAG | 1.02 ± 0.006 |
| TTTACGGAGG | 1.03 ± 0.021 |
| TTCTCACTTG | 1.02 ± 0.03 |
| TAGGGGGAAT | 1.01 ± 0.054 |
| GGATTTTATC | 0.992 ± 0.013 |

| Sequence | switch fluorescence ratio |
| --- | --- |
| TTTAGGGGGT | 0.991 ± 0.023 |
| TCCTCAGGTG | 4.07 ± 0.33 |
| GGGGAAAGTA | 1.03 ± 0.03 |
| CGTGTGGGGT | 1.01 ± 0.027 |
| ATACACGGCA | 1.11 ± 0.03 |
| AACGACTTGT | 1.01 ± 0.037 |
| TTTTCTTTTG | 1 ± 0.024 |
| AAATTCATGT | 0.996 ± 0.028 |
| ATAAGTTGCT | 0.968 ± 0.024 |
| ATAGGCCTTG | 1.01 ± 0.031 |
| TGCATAGGGA | 1.01 ± 0.035 |
| TTCATCGGCA | 1.35 ± 0.47 |
| TGGTTTGGAG | 0.984 ± 0.057 |
| TTTTCGATCT | 1 ± 0.013 |
| TTGAGGTGGC | 0.982 ± 0.018 |
| ATGTGATATG | 0.994 ± 0.042 |
| CGTGGGAGAG | 0.983 ± 0.021 |
| AAGTATTGGT | 1.02 ± 0.041 |
| ACTTATTTTT | 1 ± 0.019 |
| CGTCATATGC | 1.29 ± 0.073 |
| GCTTTGTTGG | 0.984 ± 0.035 |
| CATGGGGGAT | 1.01 ± 0.035 |
| TCTATTAGTA | 0.932 ± 0.062 |
| GAAAGTGTTG | 0.9722 ± 0.0058 |
| AAGTTATTAC | 1 ± 0.032 |

| Sequence | switch fluorescence ratio |
| --- | --- |
| CATGTTGATG | 1.0056 ± 0.00049 |
| GAATTGCTGG | 1.01 ± 0.015 |
| CCAGTAGGAG | 1.07 ± 0.051 |
| AATTTAGTTT | 0.978 ± 0.026 |
| GAAGTTGGGA | 0.9857 ± 0.0095 |
| AGCGGTTCGC | 0.9931 ± 0.0056 |
| TAGGTTGGTG | 1 ± 0.036 |
| TTACGCGAAA | 2.57 ± 2.1 |
| TGATTTTAGA | 0.974 ± 0.052 |
| GGGTGGGATG | 0.984 ± 0.017 |
| CCAGGCAAGG | 1.18 ± 0.019 |
| TGTAATTTGA | 0.984 ± 0.021 |
| TTTTTGGCGT | 1.02 ± 0.033 |
| GATCGTAATT | 1.06 ± 0.0044 |
| GGAATAAGGT | 1.01 ± 0.031 |
| GTTTGCTCCC | 1.15 ± 0.086 |
| GGGGCAGGAC | 1.54 ± 0.7 |
| GGGGGCATAT | 1.02 ± 0.026 |
| CTGGCTGGTT | 1.01 ± 0.013 |
| TGTTCTACAG | 1 ± 0.02 |
| GGAAAAGGCT | 1.02 ± 0.07 |
| CGGTCGGTTG | 1.06 ± 0.022 |
| AGGGGGGCTG | 0.975 ± 0.045 |
| AGGGGTAATA | 0.9817 ± 0.006 |
| GATAATTTCT | 0.9886 ± 0.0046 |
